Data on one molecule can be found in paper PMC3675359, “GxcC connects Rap and Rac signaling during Dictyostelium development” (BMC Cell Biology, 2013).

In general, Kd refers to the free concentration of one partner at which half of the binding sites on the other are occupied at equilibrium, for simple one-to-one binding.

The target of the assay is T1, NtermGxcC (aa 1-633), recombinant GST-ARM purified from E. coli (Dictyostelium discoideum, UniProt Q54P24 1-633).
T1 construct: GxcC, Dictyostelium discoideum, UniProt Q54P24; aa 1-633 as printed, from pGEX4T3; the cloning paragraph says that the N-terminal fragment of base pairs 1-1911 (637 codons) was ligated into pGEX 4T3; also called ARM domain of GxcC; purified GxcC ARM domain; not shown: GST, N-terminal, kept
T1 sequence (looked up): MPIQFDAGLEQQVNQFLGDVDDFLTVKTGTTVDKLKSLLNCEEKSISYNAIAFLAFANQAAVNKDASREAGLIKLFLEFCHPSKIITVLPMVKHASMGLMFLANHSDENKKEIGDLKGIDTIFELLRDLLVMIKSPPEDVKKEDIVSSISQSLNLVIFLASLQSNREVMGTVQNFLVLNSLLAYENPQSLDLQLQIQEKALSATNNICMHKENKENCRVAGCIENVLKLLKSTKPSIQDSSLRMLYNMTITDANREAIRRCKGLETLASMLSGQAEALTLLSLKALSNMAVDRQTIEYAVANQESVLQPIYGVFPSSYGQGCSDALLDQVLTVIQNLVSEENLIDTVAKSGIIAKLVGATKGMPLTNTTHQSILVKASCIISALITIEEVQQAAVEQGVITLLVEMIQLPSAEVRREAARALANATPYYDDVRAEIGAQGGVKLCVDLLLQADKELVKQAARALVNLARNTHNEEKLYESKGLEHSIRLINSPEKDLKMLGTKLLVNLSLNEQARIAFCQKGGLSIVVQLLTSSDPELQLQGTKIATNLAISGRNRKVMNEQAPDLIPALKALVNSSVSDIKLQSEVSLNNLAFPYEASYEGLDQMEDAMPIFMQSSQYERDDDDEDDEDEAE
The assay can be described thus: guanine nucleotide dissociation inhibition (GDI) assay; G-protein loaded with mGppNHp incubated with an excess of unlabelled nucleotide; decay of fluorescence (kobs) at varying concentrations of GST-ARM. The note with it: both partners purified.

B1: RapA purified from E. coli (loaded with mGppNHp or mGDP) (natural protein, Dictyostelium discoideum, UniProt P18613 1-186, looked up)
chain: MPLREFKIVVLGSGGVGKSALTVQFVQGIFVEKYDPTIEDSYRKQVEVDSNQCMLEILDTAGTEQFTAMRDLYMKNGQGFVLVYSIISNSTFNELPDLREQILRVKDCEDVPMVLVGNKCDLHDQRVISTEQGEELARKFGDCYFLEASAKNKVNVEQIFYNLIRQINRKNPVGPPSKAKSKCALL
notes: RapA, Dictyostelium discoideum; Loaded with the fluorescent nucleotide mGppNHp (or mGDP); It may be the GST-RapA of the screen with or without its GST; source: E. coli, purified
As for B1, the Kd turned out to be 13.3 µM.
